Paper PMC7418079

Molecular target: Enterovirus D68 virion, B1 clade isolate US/MO/14–18947 (Enterovirus D68)

B1: mAb EV68–159 (antibody, V domains shown)
VH: EVQLVESGGGLVKPGGLRLSCAASGFTFSTYIMTWVRQAPGRGLEWVSSISTSSVYTFYADSLKGRFTISRDNAKNSVYLQMNSLRADDTAVYYCAREEGFRAYNLYWGQGTLVTVSS
VL: QSVLTQPPSASGTPGQRVTISCSGSSSNIEYNYVYWYQKFPGTAPKLLIYKNNQRPSGVPDRFSGSKSGTSASLAISGLRSEDEGDYYCAAWDDILSGVVFGGGTKLTVL
IC50 of neutralisation of a B1 clade EV-D68 isolate, CCID50 assay on RD cells: 0.32 ng/mL
